Test results taken from EP1988097A1 (dated 2008).

Columns and labels:
[1] = molecular target: T1, P501S peptide on HLA-B*51:01:01 (human); assay: cytokine release
T1 peptide: ASACDVSVRV

[2] = molecular target: T2, P501S peptide on HLA-B*51:01:01 (human); assay: stated without data
T2 peptide: SACDVSVRV

binding result [1]: recognises | binding result [2]: recognises
B1: TCR of the P501S-specific T cell clone 4E5 (TCR, V domains shown)
Valpha: AQKITQTQPGMFVQEKEAVTLDCTYDTSDQSYGLFWYKQPSSGEMIFLIYQGSYDEQNATEGRYSLNFQKARKSANLVISASQLGDSAMYFCAMREGAGGGNKLTFGTGTQLKVEL
Vbeta: ETGVTQTPRHLVMGMTNKKSLKCEQHLGHNAMYWYKQSAKKPLELMFVYSLEERVENNSVPSRFSPECPNSSHLFLHLHTLQPEDSALYLCASSQDRTSSSYEQYFGPGTRLTVT
